Source: patent US20260035463A1 (MINGHUI PHARMACEUTICAL HANGZHOU, published 2026)

Target: T1, recombinant human PD-1 protein (human, UniProt Q15116 25-167, limits assumed)
T1 construct: The construct is not described; also called human recombinant PD-1
Assay: screening of the anti-PD-1 phage display library; method not detailed

T1 sequence (Q15116 25-167 limits assumed): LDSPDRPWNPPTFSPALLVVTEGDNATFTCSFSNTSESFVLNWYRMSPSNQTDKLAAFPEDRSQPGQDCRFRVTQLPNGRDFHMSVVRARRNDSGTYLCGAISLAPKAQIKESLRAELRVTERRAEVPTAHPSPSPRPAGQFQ

B1: Anti-PD-1 sdAb VHH (VHH)
VHH: QVQLVESGGGLVQPGGSLRLSCATSGSRRSIYAMGWFRQAPGKGLEFVAGIGWAYATTYYADSVKGRFTISRDNTKNTLYLQMNSLRAEDTAVYYCAADLDHSGFDYWGQGTLVTVSS
notes: Obtained from an alpaca phage display library; also called anti-PD-1 VHH antibody; VHH single-domain antibody
B1: binds.
